Assay: yeast display, Sf9 membrane polyspecificity reagent, FACS + sequencing; frameworks hold sequencing errors
Outline: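 After 36–48 hours of galactose induction, yeast (Saccharomyces cerevisiae BJ5465) displaying a synthetic nanobody library were stained at 4 °C for 1 hour with 10% biotinylated, detergent-solubilized Sf9 membrane reagent. Streptavidin microbeads enriched the stained cells before FACS sorting into low and high (top ~1%) gates on anti-HA and streptavidin fluorescence. Each clone's polyreactivity label reflects its gate of origin.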

Sequence | polyreactivity (PSR sort gate)
QVQLVESGGGLVQAGGSLRLSCAASGRIFDTNAMGWYRQAPGKERELVAAITYSGGSTYYADSVKGRFTISRDNAKNTVYLQMNSLKPEDTAVYYCARVRPYSKYAYGYWGQGTQVTVSS | high polyreactivity
QVQLVESGGGLVQAGGSLRLSCAASGRIFDTNVMGWYRQAPGTDRDFVAAIRWNGGSTNYADSVKGRFTISRDNSKNTVYLQMNSLKPEDTAVYYCAADGYIGWRHIYEYWGQATQVTVSS | low polyreactivity
QVQLVESGGGLVQAGGSLRLSCAASGRIFDVNAMGWYRQAPGKERELVAAIRSGGRTNYADSVKGRFTISRDNAKNTVYLQMNSLKPEDTAVYYCAAVVWSSLDDYWGLGTQVTVSS | high polyreactivity
QVQLVESGGGLVQAGGSLRLSCAASGRIFDVYAMGWYRQAPGKERALVAAITFSGGSTYYADSVKGRFTISRDNAKNTVYLQMNSLKPEDTAVYYCAAEYVDWFGDYDYWGQGTQVTVSS | high polyreactivity
QVQLVESGGGLVQAGGSLRLSCAASGRIFDWYVMGWYRQAPGKERELVAAINSGVSTKYADSVKGRFTISRDNAKNTVYLQMNSLKPEDTAVYYCAAQSFSDYRRTGRKSSYYYWGQGTQVTVSS | low polyreactivity
QVQLVESGGGLVQAGGSLRLSCAASGRIFDYNAMGWYRQAPVKERELVATITTGGSTYYADSVKGRFTISRDNAKNTVYLQMYSLKPEDTAVYYCAARRWYFHYFAYGYWGQGTQVTVSS | low polyreactivity
QVQLVESGGGLVQAGGSLRLSCAASGRIFDYNSMGWSRPAPGKDRELVASITQRGDIPYYADSVKGRFTSSRDNAKNTVFLQMNSLNPDETAVYYGNADGVLVWVLPYVLYTGDYWGQGTQVTVSS | low polyreactivity
QVQLVESGGGLVQAGGSLRLSCAASGRIFDYNVMGWYRQAPGKERELVAGISSGGSTYYADSVKGRFTISRDNAKNTVYLQMNSLKPEDTEVYYCAARGRPYRGYGYWGQGTQVTVSS | high polyreactivity
QVQLVESGGGLVQAGGSLRLSCAASGRIFDYYAMGWYRQAPGKERELVARITSGGTTNYADSVKGRFTISRDNAKNTVYLQMNSLKPEDTAVYYCNAQDYSDPLQMDYWGQGTQVTVSS | low polyreactivity
QVQLVESGGGLVQAGGSLRLSCAASGRIFDYYAMGWYRQAPGKERELVASISRSGGSTYYADSVKGRFTISRDNAKNTVYLQMNSLKPEDTAVYYCAARRGYYYGRVGYWGQGTQVTVTS | high polyreactivity
QVQLVESGGGLVQAGGSLRLSCAASGRIFDYYTMGWYRQAPGKERELVAAINWSGGSTYYADSVKGRITISRDKAKNTVYLQMNSLKPEDTAVYYCATLSYGREYGYWGQGTQVTVSS | low polyreactivity
QVQLVESGGGLVQAGGSLRLSCAASGRIFDYYTMGWYRQAPGKERELVAAISVRGGSTYYADSVKGRFTNSRDNAKNTVYLQMNSLKPEDTAVYYCAARSWRHRTYYYWGQGTQVTVSS | high polyreactivity
QVQLVESGGGLVQAGGSLRLSCAASGRIFEEYVMGWYRQAPGKERELVAAISFSGSRTYADSVKGRFTISRDNAKNTVYLQMNSLKPEDTAVYYCAADPSISYDYWGQGTQVTVSS | low polyreactivity
QVQLVESGGGLVQAGGSLRLSCAASGRIFEGYAMGWYRQAPGKEELVAAITSDASTYYADSVKGRFTISRDNAKNTVYLQMNSLKPEDTAVYYCAADTYDNDYYYWGQGTQVTVSS | high polyreactivity
QVQLVESGGGLVQAGGSLRLSCAASGRIFEPYAMGWYRQAPGKERELFAAITSGGSTDYADSVKGRFTISRDNAKNTVYLQMNSLKPEDTAVYYCAARVTYGGIPARQIYDYWGQGTQVTVSS | low polyreactivity
QVQLVESGGGLVQAGGSLRLSCAASGRIFERYAMGWYRQAPGKERELVAAISWSGGSTYYADSVKGRFTISRDNAKNTVYLQMNSLKPEDTAVYYCAARKYRSFRQRTGDYWGQGTQVTVSS | high polyreactivity
QVQLVESGGGLVQAGGSLRLSCAASGRIFEVYAMGWYRQAPGKERELVARISDGGGSTYYADSVKGRFTISRDNAKNTVYLQMNSLKPEDTAVYYCAAGGDLRLDRRFAFVSRGDYWGQGTQVTVSS | low polyreactivity
QVQLVESGGGLVQAGGSLRLSCAASGRIFFENTMGWYRQAPGKERELVAAISSSGTTNYADSVKGRFTISRDNAKNTVYLQMNSLKPEDTAVYYCNAVLHGEQVGKYIAYVYWGQGTQVTVAS | low polyreactivity
QVQLVESGGGLVQAGGSLRLSCAASGRIFFGNTMGWSRQAPGKERELVAVIDRSGGTTYYADSVKGRFTSSRDNAKNTVYLQMNSLKPEDTAVYYCAAIRRQKGLWDYYYWGQGTQVTVST | low polyreactivity
QVQLVESGGGLVQAGGSLRLSCAASGRIFFKYAMGWYRQAPGKERELVAAISSSGGRTSYADSVKGRFTISRDNAKNTVYLQMNSLKPEDTAVYYCNVKPSARGSPLYDYWGQGTQVTVSS | high polyreactivity
QVQLVESGGGLVQAGGSLRLSCAASGRIFFLYAMGWYRQAPGKERELVAAITKSGGSTYADSVKGRFTISLDNAKNTVYLQMNSLKPVDTAVYYCATENTECRDSGYIVKYGSDYWGQGTQVTVSS | low polyreactivity
QVQLVESGGGLVQAGGSLRLSCAASGRIFFNYAMGWYRQAPGKERELVAAIRGGGSTYADSVKGRFTISCDNAKNTVYLQMNSLKPEDTAVYYCAARYSGSPYHTRRYYYWGQGTQVTVSS | high polyreactivity

Sequence | polyreactivity (PSR sort gate)
QVQLVESGGGLVQAGGSLRLSCAASGRIFFPYAMGWYRQAPGKERELVAAINYSGGSTYYADSVKGRFTISRDNAKYTVYLQMNSLKPEDTAVYYCAKEYGKAYDYWGQGTLVTVSS | high polyreactivity
QVQLVESGGGLVQAGGSLRLSCAASGRIFFRNAMGWYRQAPGKDRELVAAITWNGGSTYYADSVKGRFTISRDNAKNTVYLQMNSLKPEDTAVYYCATKTLSRTRTYYYWGQCTQVTVSS | high polyreactivity
QVQLVESGGGLVQAGGSLRLSCAASGRIFFRNAMGWYRQAPGKERELVAAISKSGTRTYYADSVKGRFTISRDNAKNTVYLQMHSLKPEDTAVYYCNALLRDCGTYAGDDYWGQGTQVTVSS | high polyreactivity
QVQLVESGGGLVQAGGSLRLSCAASGRIFFRYAMGWYIQAPGKEREFVAAISGSAGSTYYADSVKGRFKISRDNAKNTVYLQMNSLKPEDTAVYYCAARKAKVSNGLKYDYWGQGTQVTVSS | low polyreactivity
QVQLVESGGGLVQAGGSLRLSCAASGRIFFRYDLGWYRQAPGKERELVAAISGGDRTSYADSVKGRFTISRDNAKITVYLQMNSLKPEDTAVYYCAGKRRSGEYYYWGQGTQVTVSS | low polyreactivity
QVQLVESGGGLVQAGGSLRLSCAASGRIFFSNAMGWYRQAPGKERELVASITGGDDTNYADSVKGRFTISRDNAKNTVYLQMNSLKPEDTAVYYCAARAIPSYRWVYRFAPKYDYWGQGTQVTVSS | low polyreactivity
QVQLVESGGGLVQAGGSLRLSCAASGRIFFSTVMGWDRQAPGKERELVAAISWSGGSTYYADSVKGRFTISRDNAKNTVYLQMNSLKPEDTAVYYCNRLSASVQYGYWGQGTQVTVSS | high polyreactivity
QVQLVESGGGLVQAGGSLRLSCAASGRIFFTNAMGWYTQAPGKERELVAAISKSGARTYYADSVKGRFTISRDNAKNTVYLLMNSLKPEDTAVYYCAADVCVYGYDYWGQGTQVTVSS | high polyreactivity
QVQLVESGGGLVQAGGSLRLSCAASGRIFFTYVMGWYRQAPGKERELVATIRVSGGSTYYADSVKGRFTISRDNAKNTVYLQMNSLKPEDTAVYYCAASGASWSLHYAGDYWGQGTQVTVSS | high polyreactivity
QVQLVESGGGLVQAGGSLRLSCAASGRIFFVYAMGWYRQAPGKERELVAAISVSDVSTSYADSVKGRFTISRDNAKNTVYLQMNSLKPEDTAVYYFNAGFRFYTYSRIAGEDYGGQGTQVTVSS | low polyreactivity
QVQLVESGGGLVQAGGSLRLSCAASGRIFFVYAMGWYRQAPGKERELVAHIPSGGSTSYADSVKGRFTISRDNAKNTDYLQMNSLKPEDTAVYSCAARYLGYIYVYYHYTDDYWGQGTQVTVSS | low polyreactivity
QVQLVESGGGLVQAGGSLRLSCAASGRIFFVYAMGWYRQAPGKERELVASITGGGSTNYADSVKGRFTISRDNAKNTVYLQMNSLKPEDTAVYYCGADIHSTRVFPEYPSGYDYWGQGTQVTVSS | low polyreactivity
QVQLVESGGGLVQAGGSLRLSCAASGRIFFWNALGWYRQAPGKEREFVATISWNDAITYYADSVKGRFTISRDNAKNTVYLQMNSLKPEDTAVYYCNVDPKIVFSFGYDYWGQGTQVTVSS | low polyreactivity
QVQLVESGGGLVQAGGSLRLSCAASGRIFFYAMGWYRQAPGKERELVASITTSGTSTYYADSVKGRFTISRDNAKNTVYLQMNSLKPEDTAVYYCNARVRYTVGPLSSLDGEYWGQGTQVTVSS | low polyreactivity
QVQLVESGGGLVQAGGSLRLSCAASGRIFFYNAMGWYRQAPGKERELVAAIDSGSSTYYADSVKGRFTISRDNAKNTVYLQMTSLKPEDTAVYYCAADGRRWYTEYDYWGQGTQVTVSS | low polyreactivity
QVQLVESGGGLVQAGGSLRLSCAASGRIFFYNVMGWYRQAPGKERELVAAITTIGGSTYYADSVKGRFTISRDNAKNTVYLQMNTLKPEDTAVYYCAAGWVTNSDGMDYWGQGTQVTVSS | low polyreactivity
QVQLVESGGGLVQAGGSLRLSCAASGRIFFYYAMGWYRQAPGTERELVAAITSGGNTNYADSVKGRFTISRDNAKNTVYLQMNSLKPEDTAVYYCAVDSWEYWRRGIYYYRFYYWGQGTQVTVSS | low polyreactivity
QVQLVESGGGLVQAGGSLRLSCAASGRIFGANAMGWYRQAPGKERELVAAISRTGGSTYYADSVKGRFTISRDNAKNTVYLQMNSLKPEDTAVYYCNAVYRYAHPMEYWGQGTQVTVSS | high polyreactivity
QVQLVESGGGLVQAGGSLRLSCAASGRIFGANAMGWYRQAPGKERELVAVITGGGGTYYADSVKGRFTISRDNSKNTVYLQINSLKPEDTAVYYCDWPRYYYTYPSHPMDYWGQGTQVTVSS | low polyreactivity
QVQLVESGGGLVQAGGSLRLSCAASGRIFGAYAMGWYRPAPGKERELVAAITSRGSTNYADSVKGRFTISRDHAKNTVYLQMNSLNPEDTAVYYCARRAVYSKRRYDYWGQGTQVTVSS | low polyreactivity
QVQLVESGGGLVQAGGSLRLSCAASGRIFGAYAMGWYRQATGKERELVAAIRWSGARTYYADSVKGRFTISRDNAKNTVYLQMNSLKPEDTAVYYCATRQAYRPLKFDYWGQGTQVTVSS | high polyreactivity
